The values below are quoted from earlier work in US20230416704A1, “LACTONASE AND STABILIZED MUTANTS THEREOF FOR TREATING FUNGAL INFECTIONS IN PLANTS” (MIGAL GALILEE RESEARCH INSTITUTE LTD., priority 2020, published 2023).

The conditions of this data set: as shown in WO 2020/255131; cited from earlier work.

B1: H172Y: M. tuberculosis phosphotriesterase-like lactonase (PPH) with H172 substituted by tyrosine (protein)
chain: MISEFPELNTARGPIDTADLGVTLMHEHVFIMTTEIAQNYPEAWGDEDKRVAGAIARLGELKARGVDTIVDLTVIGLGRYIPRIARVAAATELNIVVATGLYTYNDVPFYFHYLGPGAQLDGPEIMTDMFVRDIEHGIADTGIKAGILKCATDEPGLTPGVERVLRAVAQAYKRTGAPISTHTHAGLRRGLDQQRIFAEEGVDLSRVVIGHCGDSTDVGYLEELIAAGSYLGMDRFGVDVISPFQDRVNIVARMCERGHADKMVLSHDACCYFDALPEELVPVAMPNWHYLHIHNDVIPALKQHGVTDEQLHTMLVDNPRRIFERQGGYQ
For B1, the “temperature of 50% residual activity” value was “about 65 °C”.
